Results: paper PMC4838890, “Dynamic and flexible H3K9me3 bridging via HP1β dimerization establishes a plastic state of condensed chromatin” (Nature Communications, 2016)
Like-named read-outs stand apart in the source and are kept apart here.

Experiments:
H3KC9me3 mononucleosome = experiment: ITC, H3KC9me3 mononucleosome; type: binding, Xenopus laevis; conditions: for Kd: ITC, pH 7.5, 25°C, read-out: Kd (apparent dissociation constant)
Text: Mononucleosomes were reconstituted on a 187 bp DNA fragment containing the ‘601' sequence flanked on each site by a linker of 20 bp[55]. Oligonucleosomes were reconstituted on a 12 × 200 bp × 601 template. Plasmids carrying the respective inserts were purified using a Giga kit (Qiagen, Hilden, Germany). Templates for reconstitution were released from plasmids by restriction digest with BsoBI for mononucleosomes and a mix of DdeI, BfuCI, HaeII and EcoRI for oligonucleosomes. To separate vector backbone from DNA used for chromatin assembly stepwise precipitation with polyethylene glycol (PEG) 6000/0.5 M NaCl was carried out (final PEG concentration 2–9% and 20% (w/v)). DNA pellets were washed with 70% (v/v) ethanol and dissolved in water. Double stranded, short, biotinylated DNA linkers were ligated to the DNA template before chromatin reconstitution.
ITC measurements were performed on a iTC200 calorimeter (Microcal, Malvern, UK) at 25°C in binding buffer (10 mM triethanolamine (pH 7.5), 20 or 150 mM NaCl, 0.1 mM EDTA). Reaction heats were recorded by sequences of 37 injections of 1.8 mM hHP1β, spaced at 120 s intervals, into 250 μl of 60 μM H3 peptides, nucleosomes or oligonucleosomal arrays under constant stirring at 1,000 r.p.m. (injection #1–10: 0.5 μl each; injection #11–32: 1 μl each; injection #33–37: 2 μl each). Heats of dilution, obtained by the titration of hHP1β into buffer, were substracted from raw data before analysis. Raw data were integrated, normalized and the apparent heat change (Δq) of the reaction was plotted against the molecular ratio using the Origin software. For the determination of apparent enthalpy changes (ΔHapp), the molar association constant (KA), and the stoichiometry (n) of the interaction, non-linear least-square fitting of the Δq values was performed by the Origin software using a binding model of one set of identical binding sites.
Supplementary Table 1: Summary of conditions used in the different experiments of this study.
experiment result modification template Temp. [NaCl] [MgCl2] […]

H3K9me3 oligonucleosomes = experiment: Scanning force microscopy; type: biochemical, Xenopus laevis; conditions: 50 mM NaCl
Method: Nucleosomal arrays and recombinant hHP1β were dialyzed against SFM buffer (5 mM triethanolamine (pH7.5), 50 mM NaCl, 0.1 mM EDTA). The recombinant proteins at different concentrations (between 0 and 5 μM) were preincubated with oligonucleosomes at a DNA concentration of 50 ng ml^−1 in SFM buffer for 1 h at 4°C, and the samples were fixed with 0.05% (v/v) fresh glutaraldehyde (Electron Microscopy Sciences, PA, USA) at 4°C overnight. Fixed samples were extensively dialyzed against TEAE buffer (5 mM triethanolamine (pH 7.5), 0.1 mM EDTA). 10 μl of dialyzed sample was deposited on ca. 1 cm^2 of freshly cleaved mica (Plano). After 5 min incubation at RT, the mica was washed with 200 μl of water (high-performance liquid chromatography grade) and air-dried. Images were recorded in air on a Nanoscope V Multi Mode scanning force microscope (Veeco, NY, USA) using an ‘E'-scanner with maximum scan size of 15 × 15 μm and silicon-etched probe tips with a typical spring constant of 40 N m^−1 and a typical resonance frequency of 325 kHz (NSC15, MikroMasch) in tapping mode. […]

H3K9me3 peptide = biological target: T1, H3K9me3 peptide (Homo sapiens, UniProt P68431); experiment: SPR, immobilized H3K9me3 peptide; type: binding; conditions: for association kinetics: H3K9me3 surfaces of different density; for dissociation (release from matrix): more pronounced at higher H3K9me3 surface densities
T1 construct: C-terminally biotinylated histone H3 peptides (aa 1–20)
Method: SPR measurements were performed on a Biacore 2000 instrument (GE Healthcare, Buckinghamshire, UK) at 298 K in 10 mM triethanolamine (pH 7.5), 150 mM NaCl, 0.1 mM EDTA, 1 mM DTT, 0.005% (v/v) Tween-20. Biotinylated ligands were immobilized on streptavidin-coated sensor chips SA (GE Healthcare, Buckinghamshire, UK). Before immobilization, sensor chips were conditioned as described by the manufacturer. To obtain low surface densities (5–24 RU), 5 nM biotinylated H3 peptide was injected at a low rate of 10 μl min^−1 using varying contact times. High surface densities (>700 RU) were prepared by injecting […] peptide (10 μl min^−1) until the SA surface was saturated. Peptide-containing chips were regenerated by applying three short pulses of 0.05% (w/v) SDS followed by an injection of 1.5 M NaCl for baseline stabilization. For binding assays, hHP1β proteins were injected at […] (serial twofold dilutions) for 2 min (30 μl/min). Dissociation was recorded for up to 5 min. A streptavidin surface without ligands served as reference. In addition, blank runs were performed for double referencing. Data evaluation was performed by steady-state analysis assuming a Langmuir 1:1 binding model using BIAevaluation 4.1 and Prism 5.04 (GraphPad, CA, USA) software. Binding to the unmodified peptides was analysed with maximum binding (RUmax) set to the corresponding values obtained with the modified peptides.
Figure S8 Hiragami-Hamada et al.
20 30 one site-specific 20 30 one site-specific […]
time [s] concentration [ μM] time [s] concentration [ μM]
40 two site-specific 40 one site-specific […]
time [s] concentration [ μM]
Supplementary Figure 8: hHP1β binds nucleosomes as dimer.
(a) Dynamic light scattering (DLS) analysis of recombinant hHP1β WT (blue) and I161A (red).
(b) SPR response traces of injection of hHP1β WT into Biacore cells containing biotinylated H3K9me3-peptide immobilized on a sensory chip via covalently coated streptavidin. Immobilized peptide was at 24
RU. Injection series are from 0.024 to 50 µM protein concentration.
(c) Blot of signal over concentration of the titration in (b) to deduce an apparent Kd value. Best fitting was achieved by one site-specific binding model.
(d ) Same analysis as in (b) but with hHP1β I161A.
(e) Blot of signal over concentration of the titration in (d) to deduce an apparent Kd value. […]
(also on this page, place not known: dimer . hHP1 β H3K9me3 - se nsory ( b) site -specific ( b) hHP1 β ( d) site -specific hHP1 β modifi ed H3K9me3 -mononucleosomes H3 -tails -30 -50 -8 -4 200 -10 110 -50 -10 -30 [μM] [μM] -10 190 150 -10 110 200 -10 110 μl/min μl/min μl/min -50 150 response [RU] response [RU] response [RU] response [RU] response [RU] [μM] 10 50 response [RU]40 0 0 [μM] 10 30 50 response [RU] 40 0 0 40 [μM] 10 30 50 response [RU] 140 40 0 120 0 40 response [RU] response [RU] response [RU] Kd Kd μM Kd μM 0.8 0.6 0.4 0.2 0 1 1.0 0.8 0.6 0.4 0.2 0.0 mass fraction)

[1] = SPR titration 0.024 to 50 µM, peptide at 24 RU, one site-specific binding model, read-out: apparent Kd (Supplementary Fig. 8c,e)
[2] = SPR, 150 mM NaCl, pH 7.5, 298 K, steady-state, WT value based on fitting to a one site-specific binding model, read-out: Kd (apparent dissociation constant)

Row | Substance | Kd (H3KC9me3 mononucleosome; 20 mM NaCl) [µM] | Kd (H3KC9me3 mononucleosome; 150 mM NaCl) [µM] | frequency of condensed chromatin fibres and large clusters (H3K9me3 oligonucleosomes; H3K9me3 chromatin, n>50) | Kd (H3K9me3 peptide; [1]) [µM] | Kd (H3K9me3 peptide; [2]) [µM] | association kinetics (H3K9me3 peptide; SPR) | dissociation (release from matrix) (H3K9me3 peptide; SPR) | better binding at the higher compared with the lower salt concentration (H3KC9me3 mononucleosome; 150 mM versus 20 mM NaCl) [fold] | structures observed by SFM (H3K9me3 oligonucleosomes; 0.5 μM protein) | structures observed by SFM (H3K9me3 oligonucleosomes; 5 μM protein) | frequency of condensed chromatin fibres and large clusters, H3K9me0 (H3K9me3 oligonucleosomes; H3K9me0 chromatin, n>50) | stronger binding to the H3K9me3 matrix compared with the I161A protein (H3K9me3 peptide; SPR titration) [fold] | binding mode (H3K9me3 peptide; SPR, H3K9me3 peptide and mononucleosome surfaces)
1 | hHP1β I161A: CSD point mutant of hHP1β incapable of dimerization | 223 ± 30 | 58 ± 17 | much lower | 7.5 | 7 ± 0.4 | very fast association kinetics | dissociated rapidly from the H3K9me3 ligand |  |  |  |  |  | 
2 | hHP1β WT: recombinant human heterochromatin protein 1β (GenBank NM_001127228), 185 aa | 59 ± 8 | 22 ± 8 |  | 0.73 | 0.7 ± 0.1 | very fast association kinetics | released more slowly | 2.7 | individual but highly condensed H3K9me3 chromatin species | larger clusters that must contain multiple oligonucleosomes were visible | much lower for H3K9me0 chromatin with hHP1β WT | 10 | fully consistent with a bivalent interaction mode
